The values that follow come from PMC11074131, “ASS1 inhibits triple-negative breast cancer by regulating PHGDH stability and de novo serine synthesis” (Cell Death & Disease, 2024).

T1: His-PHGDH (UniProt O43175 1-533)
T1 construct: also called PHGDH-F; full-length PHGDH; source: E. coli BL21 DE3, purified
T1 sequence (looked up): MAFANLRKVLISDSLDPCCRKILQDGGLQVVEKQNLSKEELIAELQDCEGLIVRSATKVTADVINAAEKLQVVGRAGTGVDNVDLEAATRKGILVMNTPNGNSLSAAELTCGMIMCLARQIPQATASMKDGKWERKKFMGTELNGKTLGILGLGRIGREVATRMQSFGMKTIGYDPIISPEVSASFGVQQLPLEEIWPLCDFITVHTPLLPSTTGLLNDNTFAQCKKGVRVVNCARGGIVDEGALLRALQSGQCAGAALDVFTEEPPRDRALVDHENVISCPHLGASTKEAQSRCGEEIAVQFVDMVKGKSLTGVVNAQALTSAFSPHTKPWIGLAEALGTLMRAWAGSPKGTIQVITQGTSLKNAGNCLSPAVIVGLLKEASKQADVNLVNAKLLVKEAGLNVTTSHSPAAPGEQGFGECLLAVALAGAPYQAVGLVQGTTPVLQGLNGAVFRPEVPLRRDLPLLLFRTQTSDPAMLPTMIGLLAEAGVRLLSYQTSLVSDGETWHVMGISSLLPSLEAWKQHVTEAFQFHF

T2: GST-PHGDH (UniProt O43175 1-533)
T2 construct: also called recombinant GST-PHGDH; source: E. coli BL21 DE3, purified
T2 sequence (looked up): T1 sequence (looked up)

B1: GST-ASS1 (natural protein, human, UniProt P00966 1-412, looked up)
chain: MSSKGSVVLAYSGGLDTSCILVWLKEQGYDVIAYLANIGQKEDFEEARKKALKLGAKKVFIEDVSREFVEEFIWPAIQSSALYEDRYLLGTSLARPCIARKQVEIAQREGAKYVSHGATGKGNDQVRFELSCYSLAPQIKVIAPWRMPEFYNRFKGRNDLMEYAKQHGIPIPVTPKNPWSMDENLMHISYEAGILENPKNQAPPGLYTKTQDPAKAPNTPDILEIEFKKGVPVKVTNVKDGTTHQTSLELFMYLNEVAGKHGVGRIDIVENRFIGMKSRGIYETPAGTILYHAHLDIEAFTMDREVRKIKQGLGLKFAELVYTGFWHSPECEFVRHCIAKSQERVEGKVQVSVLKGQVYILGRESPLSLYNEELVSMNVQGDYEPTDATGFININSLRLKEYHRLQSKVTAK
notes: also called recombinant GST-ASS1; source: E. coli BL21 DE3, purified
B2: His-ASS1 (natural protein, human, UniProt P00966 1-412, looked up)
chain: B1 chain
notes: also called recombinant His-ASS1; source: E. coli BL21 DE3, purified
B3: PHGDH N-314 (catalytic domain) (domain or fragment, UniProt O43175 1-314, looked up)
chain: MAFANLRKVLISDSLDPCCRKILQDGGLQVVEKQNLSKEELIAELQDCEGLIVRSATKVTADVINAAEKLQVVGRAGTGVDNVDLEAATRKGILVMNTPNGNSLSAAELTCGMIMCLARQIPQATASMKDGKWERKKFMGTELNGKTLGILGLGRIGREVATRMQSFGMKTIGYDPIISPEVSASFGVQQLPLEEIWPLCDFITVHTPLLPSTTGLLNDNTFAQCKKGVRVVNCARGGIVDEGALLRALQSGQCAGAALDVFTEEPPRDRALVDHENVISCPHLGASTKEAQSRCGEEIAVQFVDMVKGKSLTG
notes: also called catalytic domain of PHGDH; source: E. coli BL21 DE3, purified

Details in all cases: both partners purified
Assay [1] has as its target T1, His-PHGDH. Description: pull-down; purified GST-ASS1 immobilised on MagneGST Glutathione Particles; purified His-PHGDH or its truncated forms added overnight at 4 °C; washed with PBST; western blot; GST as negative control. For orientation: In western blotting, separated proteins are transferred to a membrane and probed.
The target of assay [2] is T2, GST-PHGDH. Briefly: pull-down; purified GST-PHGDH immobilised on MagneGST Glutathione Particles; purified His-ASS1 added overnight at 4 °C; washed with PBST; western blot; GST as negative control.
Assay [3] addresses B1. Briefly: pull-down; purified GST-ASS1 immobilised on MagneGST Glutathione Particles; purified His-PHGDH or its truncated forms added overnight at 4 °C; washed with PBST; western blot; GST as negative control.

Turning to B1, the binding result in assay [1] was “binds”.

As to B2, the binding result in assay [2] was “binds”.

Consider B3, for which the binding result in assay [3] is on record as “binds”.
